From article PMC8358021 (2021) come the findings set out here.

This assay deals with T1, AbApeO-AbApeC heterodimer (ketosynthase-chain length factor complex of the aryl polyene biosynthesis gene … (Acinetobacter baumannii)).
T1 chain 1: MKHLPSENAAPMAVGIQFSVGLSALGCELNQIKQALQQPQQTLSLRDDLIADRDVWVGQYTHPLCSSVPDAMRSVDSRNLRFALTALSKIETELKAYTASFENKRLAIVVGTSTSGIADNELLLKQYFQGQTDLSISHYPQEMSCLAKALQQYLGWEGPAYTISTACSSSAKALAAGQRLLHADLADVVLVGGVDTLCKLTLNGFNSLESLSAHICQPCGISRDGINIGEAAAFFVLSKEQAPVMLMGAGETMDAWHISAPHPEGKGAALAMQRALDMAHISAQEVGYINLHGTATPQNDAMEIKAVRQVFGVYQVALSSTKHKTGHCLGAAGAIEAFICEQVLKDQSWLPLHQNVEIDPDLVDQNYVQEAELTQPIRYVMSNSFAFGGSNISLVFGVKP
T1 chain 2: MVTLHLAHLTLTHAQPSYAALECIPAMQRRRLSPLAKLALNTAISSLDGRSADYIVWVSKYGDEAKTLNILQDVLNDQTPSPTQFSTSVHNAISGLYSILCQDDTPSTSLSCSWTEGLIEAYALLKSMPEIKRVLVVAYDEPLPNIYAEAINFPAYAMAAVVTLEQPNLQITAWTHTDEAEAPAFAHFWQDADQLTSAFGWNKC
Briefly: ITC.

B1: holo ACP2 (ApeF), acyl carrier protein 2 of the A. baumannii APE gene cluster (natural protein)
chain: MSNLADELKQMIIDVLALEDITIADIDTEAPLFGEGLGLDSIDALELGLALKKRYNIHLNAESDETKQHFKSIQSLVALVEAQQKS
modifications: 4'-phosphopantetheine (holo form)
The term Kd denotes the free concentration of one partner at which half of the binding sites on the other are occupied at equilibrium, for simple one-to-one binding. A higher Kd goes with a looser complex. Molecule B1 showed a Kd of 42.7 µM.
